Test results as given in paper PMC3562429 (Developmental cell, 2013).

Molecular target: T1, Aim3 (budding yeast, UniProt P38266 1-947)
T1 sequence (looked up): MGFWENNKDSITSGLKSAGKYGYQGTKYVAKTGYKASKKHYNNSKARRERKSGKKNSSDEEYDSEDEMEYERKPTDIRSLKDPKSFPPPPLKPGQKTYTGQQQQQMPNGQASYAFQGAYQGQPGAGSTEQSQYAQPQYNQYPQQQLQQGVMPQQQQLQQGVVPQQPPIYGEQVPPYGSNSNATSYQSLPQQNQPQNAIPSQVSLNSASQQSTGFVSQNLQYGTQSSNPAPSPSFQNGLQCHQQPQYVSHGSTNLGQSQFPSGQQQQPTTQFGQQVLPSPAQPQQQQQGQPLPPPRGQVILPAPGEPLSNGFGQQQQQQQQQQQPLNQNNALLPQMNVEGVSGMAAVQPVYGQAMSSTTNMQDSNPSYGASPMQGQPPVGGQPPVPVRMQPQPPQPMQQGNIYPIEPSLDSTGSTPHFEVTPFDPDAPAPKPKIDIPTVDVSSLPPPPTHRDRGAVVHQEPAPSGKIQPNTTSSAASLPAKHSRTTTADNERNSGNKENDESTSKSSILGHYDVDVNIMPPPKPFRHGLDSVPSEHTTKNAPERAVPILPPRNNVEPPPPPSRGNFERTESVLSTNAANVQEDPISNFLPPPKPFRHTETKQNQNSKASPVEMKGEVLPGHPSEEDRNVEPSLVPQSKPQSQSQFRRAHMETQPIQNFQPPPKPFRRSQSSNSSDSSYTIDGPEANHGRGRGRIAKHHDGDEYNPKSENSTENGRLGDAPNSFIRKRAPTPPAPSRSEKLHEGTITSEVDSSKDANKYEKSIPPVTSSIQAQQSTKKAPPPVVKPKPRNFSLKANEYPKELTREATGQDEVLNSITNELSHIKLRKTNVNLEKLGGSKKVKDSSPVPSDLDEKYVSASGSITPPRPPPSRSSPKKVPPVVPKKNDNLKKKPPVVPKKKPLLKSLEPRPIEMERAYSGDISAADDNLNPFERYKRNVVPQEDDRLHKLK
Test: pull-down

- binding result: binds
B1: Abp1-9myc (Actin binding protein 1) (natural protein, budding yeast, UniProt P15891 1-592, looked up)
chain: MALEPIDYTTHSREIDAEYLKIVRGSDPDTTWLIISPNAKKEYEPESTGSSFHDFLQLFDETKVQYGLARVSPPGSDVEKIIIIGWCPDSAPLKTRASFAANFAAVANNLFKGYHVQVTARDEDDLDENELLMKISNAAGARYSIQTSSKQQGKASTPPVKKSFTPSKSPAPVSKKEPVKTPSPAPAAKISSRVNDNNDDDDWNEPELKERDFDQAPLKPNQSSYKPIGKIDLQKVIAEEKAKEDPRLVQKPTAAGSKIDPSSDIANLKNESKLKRDSEFNSFLGTTKPPSMTESSLKNDDDKVIKGFRNEKSPAQLWAERKAKQNSGNAETKAEAPKPEVPEDEPEGEPDVKDLKSKFEGLAASEKEEEEMENKFAPPPKKSEPTIISPKPFSKPQEPVKAEEAEQPKTDYKKIGNPLPGMHIEADNEEEPEENDDDWDDDEDEAAQPPLPSRNVASGAPVQKEEPEQEEIAPSLPSRNSIPAPKQEEAPEQAPEEEIEEEAEEAAPQLPSRSSAAPPPPPRRATPEKKPKENPWATAEYDYDAAEDNELTFVENDKIINIEFVDDDWWLGELEKDGSKGLFPSNYVSLGN
